Like-named read-outs stand apart in the source and are kept apart here. Some results are limits rather than exact numbers.

In one data set the target is T1, Human VPAC1 Receptor (Homo sapiens, UniProt P32241).
T1 construct: expressed in transfected cells
T1 sequence (P32241 31-457): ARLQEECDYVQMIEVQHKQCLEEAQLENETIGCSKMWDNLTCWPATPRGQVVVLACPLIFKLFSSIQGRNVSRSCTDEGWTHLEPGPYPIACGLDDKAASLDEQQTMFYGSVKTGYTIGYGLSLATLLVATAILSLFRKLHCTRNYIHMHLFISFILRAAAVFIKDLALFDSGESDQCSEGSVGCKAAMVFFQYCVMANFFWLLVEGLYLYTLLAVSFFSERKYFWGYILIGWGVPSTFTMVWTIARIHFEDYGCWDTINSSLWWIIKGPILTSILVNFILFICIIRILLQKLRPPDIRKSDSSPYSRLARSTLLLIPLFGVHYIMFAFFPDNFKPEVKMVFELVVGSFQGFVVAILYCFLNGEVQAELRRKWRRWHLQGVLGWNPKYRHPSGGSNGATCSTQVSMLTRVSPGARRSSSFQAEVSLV
The experiment in a line: Filter binding assay, 125I-labeled VIP, membranes of cells transiently transfected with human VPAC1. The conditions noted are these: 125I-labeled VIP tracer. As for the experimental part: (§1) For this assay, the solutions and equipment include:
(§2) Presoak solution: 0.5% Polyethyleneamine in Aqua dest
(§3) Buffer for flushing filter plates: 25 mM HEPES pH 7.4
(§4) Blocking buffer: 25 mM HEPES pH 7.4; 0.2% protease free BSA
(§5) Assay buffer: 25 mM HEPES pH 7.4; 0.5% protease free BSA
(§6) Dilution and assay plate: PS-Microplate, U form
(§7) Filtration Plate Multiscreen FB Opaque Plate; […] Type B Glasfiber filter
(§8) In order to prepare the filter plates, the presoak solution is aspirated by vacuum filtration. The plates are flushed twice with 200 μL flush buffer. 200 μL blocking buffer is added to the filter plate. The filter plate is then incubated with 200 μL presoak solution for 1 hour at room temperature.
(§9) The assay plate is filled with 25 μL assay buffer, 25 μL membranes (2.5 μg) suspended in assay buffer, 25 μL agonist in assay buffer, and 25 μL tracer (about 40000 cpm) in assay buffer. The filled plate is incubated for 1 hour with shaking.
(§10) The transfer from assay plate to filter plate is conducted. The blocking buffer is aspirated by vacuum filtration and washed two times with flush buffer. 90 μL is transferred from the assay plate to the filter plate. The 90 μL transferred from assay plate is aspirated and washed three times with 200 μL flush buffer. The plastic support is removed. It is dried for 1 hour at 60° C. 30 μL Microscint is added. The count is performed.

Data set [1] is described as follows: Pharmacokinetic profiles of PEGylated peptides in Fisher 344 rats. The class given is in vivo, rat. The conditions noted are these: 100 μg agonist/kg, plasma RIA, mean N = 3. As for the experimental part:
Pharmacokinetic profiles of PEGylated peptides. Healthy Fisher 344 rats (3 animals per group) were injected with 100 μg agonist/kg (agonist amount based on peptide content and dissolved in PBS buffer). Blood samples were drawn 3, 12, 24, 48, 72, 96 and 168 hour post dosing and the peptide content in plasma was analysed by a radio-immunoassay (RIA) directed against the N-terminus of the peptide. PK parameters were then calculated using a model-independent method (WinNonlin Pro, Pharsight Corp., Mountain View, Calif., USA).

The next data set addresses T2, Human PAC1 Receptor (Homo sapiens, UniProt P41586).
T2 construct: expressed in transfected cells
T2 sequence (P41586 21-468): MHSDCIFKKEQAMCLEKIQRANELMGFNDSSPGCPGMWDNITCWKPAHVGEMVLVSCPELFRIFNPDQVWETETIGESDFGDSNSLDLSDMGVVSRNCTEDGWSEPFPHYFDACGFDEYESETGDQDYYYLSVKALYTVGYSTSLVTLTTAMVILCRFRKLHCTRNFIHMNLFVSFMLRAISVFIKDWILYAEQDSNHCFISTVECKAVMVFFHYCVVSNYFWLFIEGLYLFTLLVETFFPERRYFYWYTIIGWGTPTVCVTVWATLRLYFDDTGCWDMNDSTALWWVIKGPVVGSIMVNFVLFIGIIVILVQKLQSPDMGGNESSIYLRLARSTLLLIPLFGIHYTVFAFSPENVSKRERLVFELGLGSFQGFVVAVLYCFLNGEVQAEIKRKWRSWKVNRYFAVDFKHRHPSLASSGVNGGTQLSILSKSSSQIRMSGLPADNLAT
The experiment in a line: Filter binding assay, 125I-labeled PACAP-27, membranes of cells transiently transfected with human PAC1. As for the experimental part: as §1, §2, §3, §4, §5, §6, §7, §8, §9, §10

The test system of the next data set is Normal Wistar rats. The experiment in a line: Intravenous glucose tolerance test (IVGTT). It counts as in vivo, rat. The note with it: AUC insulin, 0-10 min after glucose, 24 h between glucose & compound, Wistar rats. As for the experimental part: Intravenous glucose tolerance test (IVGTT): Normal Wistar rats are fasted overnight and are anesthetized prior to the experiment. A blood sampling catheter is inserted into the rats. The agonist is given subcutaneously, normally 24 h prior to the glucose challenge. Blood samples are taken from the carotid artery. A blood sample is drawn immediately prior to the injection of glucose along with the agonist. After the initial blood sample, glucose mixed is injected intravenously (i.v.). A glucose challenge of 0.5 g/kg body weight is given, injecting a total of 1.5 mL vehicle with glucose and agonist per kg body weight. The peptide concentrations are varied to produce the desired dose in μg/kg. Blood samples are drawn at 2, 4, 6 and 10 minutes after giving glucose. The control group of animals receives the same vehicle along with glucose, but with no agonist added. In some instances, 20 and 30 minute post-glucose blood samples were drawn. Aprotinin is added to the blood sample (250-500 kIU/ml blood). The plasma is then analyzed for glucose and insulin using standard methodologies.
The assay uses a formulated and calibrated peptide stock in PBS. Normally, this stock is a prediluted 100 μM stock. However, a more concentrated stock with approximately 1 mg agonist per mL is used. The specific concentration is always known. Variability in the maximal response is mostly due to variability in the vehicle dose.

The nature of data set [2]: Rat serum stability study (DiscoveRx cAMP read-out on CHO-VPAC2 cells). The conditions noted are these: 24 h in rat serum at 37° C.; EC50, 4° C./EC50, 37° C.; values >100% may represent release of intact peptide from the PEG conjugate. As for the experimental part: In order to determine the stability of VPAC2 receptor peptide agonists in rat serum, CHO-VPAC2 cells clone #6 (96 well plates/50,000 cells/well and 1 day culture), PBS 1× (Gibco), the peptides for the analysis in a 100 μM stock solution, rat serum from a sacrificed normal Wistar rat, aprotinin, and a DiscoveRx assay kit are obtained. The rat serum is stored at 4° C. until use and is used within two weeks.
The aliquot is stored with aprotinin at 4° C. The aliquot is stored without aprotinin at 37° C. The aliquots are incubated for 24 or 72 hours.
On Day 1, after incubation of the aliquots prepared on day 0 for 24 or 72 hours, an incubation buffer containing PBS+1.3 mM CaCl2, 1.2 mM MgCl2, 2 mM glucose, and 0.25 mM IBMX is prepared. A plate with 11 serial 5× dilutions of peptide for the 4° C. and 37° C. aliquot is prepared for each peptide studied. […] The plate(s) are washed with cells twice in incubation buffer. The plates are allowed to hold 50 μL incubation media per well for 15 minutes. 50 μL solution per well is transferred to the cells from the plate prepared with 11 serial 5× dilutions of peptide for the 4° C. and 37° C. aliquot for each peptide studied, using the maximal concentrations that are indicated by the primary screen, in duplicate. This step dilutes the peptide concentration by a factor of two. The cells are incubated at room temperature for 30 minutes. The supernatant is removed. 40 μL/well of the DiscoveRx antibody/extraction buffer is added. The cells are incubated on the shaker (300 rpm) for 1 hour. Normal procedure with the DiscoveRx kit is followed. cAMP standards are included in column 12. EC50 values are determined from the cAMP assay data.

For “C6-HSDAVFTEQY(OMe)TOrnLRAibQVAAbuAibOrnYLQAibIOrnOrnGGPSSGAPPPC(PEG40K)-NH2 (HSDAVFTEQYTXLRXQVAXXXYLQXIXXGGPSSGAPPPC; C6 acyl, PEG40K on Cys, C-terminal amide; Synthetic sequence PEGylated VPAC2 receptor agonist) [Agonist P511]”, in the data set with Human VPAC1 Receptor, the IC50 (as a rule, the concentration that inhibits the measured activity by half) was greater than 25000 nM. Besides, in data set [1], the AUC0-last was 3.067 µg·h/mL, the Cmax (commonly the maximum level reached in the sampled fluid or tissue) turned out to be 0.1 µg/mL and the Tmax (usually the time at which the peak concentration occurs) was 16 h. The compound further gave an IC50 in the data set with Human PAC1 Receptor (125I-labeled PACAP-27 tracer) greater than 25000 nM. Moreover, in the data set on Normal Wistar rats (0.1 mg/kg), the “% increase AUC: Dose = 0.1 mg/kg” value came to 38%. Also, the “% increase AUC: Dose = 0.3 mg/kg” value in the data set on Normal Wistar rats (0.3 mg/kg) is 59%.

In the case of “C6-HSDAVFTEQY(OMe)TOrnLRAibQVAAAibOrnYLQSIOrnOrnC(PEG20K)GGPSSGAPPPC(PEG20K)NH2 (HSDAVFTEQYTXLRXQVAAXXYLQSIXXCGGPSSGAPPPC; C6 acyl, two PEG20K, C-terminal amide; Synthetic sequence PEGylated VPAC2 receptor agonist) [Agonist P562]”, in the data set with Human VPAC1 Receptor, the IC50 is greater than 25000 nM. In addition, in data set [2], the “24 h stab (%)” value is 213%. For the same compound, in data set [1], the AUC0-last is 5.456 µg·h/mL, the Cl/F is 0.019 L/h/kg, the Cmax worked out at 0.12 µg/mL and the Tmax is reported as 24 h. In addition, in data set [1], the T½ came out at 25 h. In the data set with Human PAC1 Receptor (125I-labeled PACAP-27 tracer), this compound gave an IC50 greater than 25000 nM.

As to `CC[C@H](C)[C@H](NC(=O)[C@H](CO)NC(=O)[C@H](CC(N)=O)NC(=O)[C@H](CC(C)C)NC(=O)[C@H](Cc1ccc(O)cc1)NC(=O)[C@H](CCCCN)NC(=O)[C@H](CCCCN)NC(=O)[C@@H](NC(=O)[C@H](C)NC(=O)[C@H](CCSC)NC(=O)[C@H](CCC(N)=O)NC(=O)[C@H](CCCCN)NC(=O)[C@H](CCCN=C(N)N)NC(=O)[C@H](CC(C)C)NC(=O)[C@H](CCCN=C(N)N)NC(=O)[C@@H](NC(=O)[C@H](Cc1ccc(O)cc1)NC(=O)[C@H](CC(N)=O)NC(=O)[C@H](CC(=O)O)NC(=O)[C@@H](NC(=O)[C@H](Cc1ccccc1)NC(=O)[C@@H](NC(=O)[C@H](C)NC(=O)[C@H](CC(=O)O)NC(=O)[C@H](CO)NC(=O)[C@@H](N)Cc1cnc[nH]1)C(C)C)[C@@H](C)O)[C@@H](C)O)C(C)C)C(=O)N[C@@H](CC(C)C)C(=O)N[C@@H](CC(N)=O)C(=O)O` [VIP, reference compound], the “24 h stab (%)” value in data set [2] was found to be 0.2%. In addition, at Human PAC1 Receptor, the IC50 was greater than 1000 nM.

In the case of “C6-HSDAVFTEQY(OMe)TOrnLRAibQLAAbuAibOrnYLQSIOrnC(PEG20K)OrnGGPSSGAPPPC(PEG20K)-NH2 (HSDAVFTEQYTXLRXQLAXXXYLQSIXCXGGPSSGAPPPC; C6 acyl, two PEG20K, C-terminal amide; Synthetic sequence PEGylated VPAC2 receptor agonist) [Agonist P555]”, the concentration for half-maximal inhibition (IC50) with Human VPAC1 Receptor is greater than 25000 nM. In data set [2], the “24 h stab (%)” value worked out at 117%. In addition, in data set [1], the AUC0-last amounted to 4.918 µg·h/mL, the Cl/F was 0.02 L/h/kg, the Cmax was found to be 0.102 µg/mL and the time to peak (Tmax) is 16 h. The same compound showed a T½ in data set [1] of 13 h. In the data set with Human PAC1 Receptor (125I-labeled PACAP-27 tracer), this compound displayed an IC50 greater than 25000 nM.

“C6-HSDAVFTEQY(OMe)TOrnLRAibQC(PEG40K)AAbuAibOrnYLQAibIOrnOrnGGPSSGAPPPS-NH2 (HSDAVFTEQYTXLRXQCAXXXYLQXIXXGGPSSGAPPPS; C6 acyl, PEG40K on Cys, C-terminal amide; Synthetic sequence PEGylated VPAC2 receptor agonist) [Agonist P545]” showed an IC50 with Human VPAC1 Receptor greater than 25000 nM. In data set [1], the AUC0-last was 12.737 µg·h/mL, the Cl/F came to 0.007 L/h/kg, the Cmax worked out at 0.139 µg/mL and the Tmax is 72 h. In addition, in data set [1], the T½ is recorded as 43 h. The IC50 with Human PAC1 Receptor (125I-labeled PACAP-27 tracer) is greater than 25000 nM.

The compound “C6-HSDAVFTEQY(OMe)TOrnLRAibQLAAbuAibOrnY(OMe)LQAibIOrnOrnGGPSSGAPPPC(PEG20K)C(PEG20K)-NH2 (HSDAVFTEQYTXLRXQLAXXXYLQXIXXGGPSSGAPPPCC; C6 acyl, non-natural residues, two PEG20K, C-terminal amide; Synthetic sequence PEGylated VPAC2 receptor agonist) [Agonist P574]” registered a half-inhibitory concentration (IC50) with Human VPAC1 Receptor greater than 25000 nM. In addition, the “24 h stab (%)” value in data set [2] was found to be 288%. In addition, in data set [1], the AUC0-last came to 3.408 µg·h/mL, the Cl/F worked out at 0.028 L/h/kg, the Cmax was found to be 0.07 µg/mL and the Tmax is on record as 20 h. The same compound returned a T½ in data set [1] of 18 h. The IC50 with Human PAC1 Receptor (125I-labeled PACAP-27 tracer) was greater than 25000 nM.

For the compound “C6-HSDAVFTEQY(OMe)TOrnLRAibQLAbuAAibOrnYLQSIOrnOrnGGPSSGAPPPC(PEG20K)C(PEG20K)-NH2 (HSDAVFTEQYTXLRXQLXAXXYLQSIXXGGPSSGAPPPCC; C6 acyl, non-natural residues, two PEG20K, C-terminal amide; Synthetic sequence PEGylated VPAC2 receptor agonist) [Agonist P590]”, the IC50 with Human VPAC1 Receptor and with Human PAC1 Receptor (125I-labeled PACAP-27 tracer) was greater than 25000 nM in each case.

Source of the values: patent publication US7897573B2, “Selective VPAC2 receptor peptide agonists” (priority 2005, dated 2011).
